Experimental findings from patent US20160319032A1 are described below.

Assay [1] concerns the target cynomolgus β6 on transfected HEK-293 cells (cynomolgus). The assay can be described thus: FACS, purified mAb, transfected HEK-293 (parental: 2).
The target of assay [2] is mouse αVβ6 on cells (mouse) (UniProt P43406). The experiment in a line: FACS, purified mAb, transfected HEK-293 (parental: 74).
The target is the same in assay [3]. The experiment in a line: FACS, K562 cells expressing mouse αVβ6 (parental K562: 33).

Sequence of mouse αVβ6 on cells (mouse) (P43406 31-1044, chain 1 of 2): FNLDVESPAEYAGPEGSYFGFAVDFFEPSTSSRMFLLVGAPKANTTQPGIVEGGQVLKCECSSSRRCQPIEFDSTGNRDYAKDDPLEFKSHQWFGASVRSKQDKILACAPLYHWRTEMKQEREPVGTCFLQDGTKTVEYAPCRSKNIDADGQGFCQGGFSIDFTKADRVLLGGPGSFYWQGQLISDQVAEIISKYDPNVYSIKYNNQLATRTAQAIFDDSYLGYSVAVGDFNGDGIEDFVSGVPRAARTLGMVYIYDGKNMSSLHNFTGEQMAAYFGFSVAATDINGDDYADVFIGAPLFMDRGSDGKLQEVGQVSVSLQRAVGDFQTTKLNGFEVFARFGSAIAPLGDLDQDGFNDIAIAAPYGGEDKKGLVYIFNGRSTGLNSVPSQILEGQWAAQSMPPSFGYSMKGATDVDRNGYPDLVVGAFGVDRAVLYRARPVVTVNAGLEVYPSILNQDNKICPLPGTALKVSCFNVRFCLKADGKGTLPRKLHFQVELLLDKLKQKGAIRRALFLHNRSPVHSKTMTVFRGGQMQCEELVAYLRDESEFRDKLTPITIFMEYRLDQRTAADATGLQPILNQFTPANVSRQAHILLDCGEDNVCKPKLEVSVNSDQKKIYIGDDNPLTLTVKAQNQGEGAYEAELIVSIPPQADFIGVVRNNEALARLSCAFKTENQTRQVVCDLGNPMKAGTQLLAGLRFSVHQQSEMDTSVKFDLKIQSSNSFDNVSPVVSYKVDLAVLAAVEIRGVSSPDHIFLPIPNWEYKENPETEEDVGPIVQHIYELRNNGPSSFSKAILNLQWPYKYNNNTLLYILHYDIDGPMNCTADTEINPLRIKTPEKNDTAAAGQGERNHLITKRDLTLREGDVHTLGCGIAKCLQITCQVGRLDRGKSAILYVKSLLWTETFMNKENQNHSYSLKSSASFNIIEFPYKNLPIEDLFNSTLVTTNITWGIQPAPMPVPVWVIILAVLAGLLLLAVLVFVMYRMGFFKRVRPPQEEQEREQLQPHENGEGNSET
Sequence of mouse αVβ6 on cells (mouse) (Q9Z0T9 22-787, chain 2 of 2, further chain): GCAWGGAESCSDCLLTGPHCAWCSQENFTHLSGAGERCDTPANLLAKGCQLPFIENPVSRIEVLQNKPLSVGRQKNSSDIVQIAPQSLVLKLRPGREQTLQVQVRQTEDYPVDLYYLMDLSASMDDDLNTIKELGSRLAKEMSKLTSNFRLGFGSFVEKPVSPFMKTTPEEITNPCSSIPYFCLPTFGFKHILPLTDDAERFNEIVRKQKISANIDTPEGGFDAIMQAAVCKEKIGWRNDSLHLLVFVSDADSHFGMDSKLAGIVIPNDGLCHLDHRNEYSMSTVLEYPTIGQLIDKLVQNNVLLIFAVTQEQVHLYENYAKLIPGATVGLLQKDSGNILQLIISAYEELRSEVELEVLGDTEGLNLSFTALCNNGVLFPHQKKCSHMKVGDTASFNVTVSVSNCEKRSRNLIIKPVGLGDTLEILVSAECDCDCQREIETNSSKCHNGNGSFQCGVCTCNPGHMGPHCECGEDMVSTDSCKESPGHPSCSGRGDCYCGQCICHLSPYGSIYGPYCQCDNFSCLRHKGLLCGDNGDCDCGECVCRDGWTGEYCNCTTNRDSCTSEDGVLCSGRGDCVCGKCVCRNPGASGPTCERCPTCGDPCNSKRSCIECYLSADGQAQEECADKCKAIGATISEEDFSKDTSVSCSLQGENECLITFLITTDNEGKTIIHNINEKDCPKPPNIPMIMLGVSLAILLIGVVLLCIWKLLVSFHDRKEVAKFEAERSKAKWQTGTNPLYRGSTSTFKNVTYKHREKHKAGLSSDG

B1: sc 133 (antibody, V domains shown)
VH: QVQLVQSGAEVKKPGASVKVSCKASGYTFTGYYMHWVRQAPGQGLEWMGWINPKSGDTNYAQKFQGRVTLTRDTSTSTAYMELSRLRSDDTAVYYCARRLDVWGQGTTVTVSS
VL: QSVLTQPPSVSAAPGQKVTISCSGSSSNIGNNYVSWYQQLPGTAPKLLIYDNNKRPSGIPDRFSGSKSGTSATLGITGLQTGDEADYYCGTWNSSLSAGYVFGTGTKVTV
Consider B1, for which the percent of cells shifted in assay [1] is 10%.

B2: sc 264 (antibody, V domains shown)
VH: QVQLQESGPGLVKPSQTLSLTCTVSGGSISSGGYYWSWIRQHPGKGLEWIGYIYYSGRTYNNPSLKSRVTISVDTSKNQFSLKLSSVTAADTAVYYCARVATGRGDYHFYAMDVWGQGTTVTVSS
VL: SYELTQPSSVSVSPGQTARITCSGDVLAKKSARWFHQKPGQAPVLVIYKDSERPSGIPERFSGSSSGTTVTLTISGAQVEDEAAYYCYSAADNNLVFGGGTKLTVL
Turning to B2, the percent of cells shifted in assay [2] is 63%. Besides, in assay [3], the Geometric Mean Shift (arbitrary units) is 160.
